# Source: paper PMC10653379
# Biological target: eIF3a-HA (Trypanosoma brucei (endogenous in procyclic form strain 29-13))
# Test: proximity ligation
substance,measurement,value
DRBD18 (natural protein),PLA dots per cell (dots per cell),8
